Assay results from publication PMC7293015 (Nucleic Acids Research, 2020).
Substitutions are numbered along the chain they refer to. Names and notes keep the numbering of the source.

T1: AfBax1 mutant D133A/E135A (Archaeoglobus fulgidus, UniProt O29890 1-468, D133A | E135A)
T1 construct: Expression and purification of the mutants are not described; also called AfBax1 with substitutions D133A/E135A
T1 sequence: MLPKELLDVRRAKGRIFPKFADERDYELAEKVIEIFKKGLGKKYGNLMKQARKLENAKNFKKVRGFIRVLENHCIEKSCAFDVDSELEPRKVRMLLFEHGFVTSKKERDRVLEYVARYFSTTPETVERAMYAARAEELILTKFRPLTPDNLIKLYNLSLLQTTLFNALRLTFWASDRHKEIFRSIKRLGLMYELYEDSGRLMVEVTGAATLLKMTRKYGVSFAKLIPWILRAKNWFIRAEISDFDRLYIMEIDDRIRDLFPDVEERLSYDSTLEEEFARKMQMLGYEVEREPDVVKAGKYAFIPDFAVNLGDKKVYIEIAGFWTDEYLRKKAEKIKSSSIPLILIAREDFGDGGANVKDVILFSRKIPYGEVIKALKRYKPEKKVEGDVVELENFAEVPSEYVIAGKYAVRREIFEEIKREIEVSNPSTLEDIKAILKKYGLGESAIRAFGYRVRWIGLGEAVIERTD

T2: StBax1 mutant R86A/R87A (Sulfolobus tokodaii, UniProt Q970I1 1-481, R86A | R87A)
T2 construct: Expression and purification of the mutants are not described
T2 sequence: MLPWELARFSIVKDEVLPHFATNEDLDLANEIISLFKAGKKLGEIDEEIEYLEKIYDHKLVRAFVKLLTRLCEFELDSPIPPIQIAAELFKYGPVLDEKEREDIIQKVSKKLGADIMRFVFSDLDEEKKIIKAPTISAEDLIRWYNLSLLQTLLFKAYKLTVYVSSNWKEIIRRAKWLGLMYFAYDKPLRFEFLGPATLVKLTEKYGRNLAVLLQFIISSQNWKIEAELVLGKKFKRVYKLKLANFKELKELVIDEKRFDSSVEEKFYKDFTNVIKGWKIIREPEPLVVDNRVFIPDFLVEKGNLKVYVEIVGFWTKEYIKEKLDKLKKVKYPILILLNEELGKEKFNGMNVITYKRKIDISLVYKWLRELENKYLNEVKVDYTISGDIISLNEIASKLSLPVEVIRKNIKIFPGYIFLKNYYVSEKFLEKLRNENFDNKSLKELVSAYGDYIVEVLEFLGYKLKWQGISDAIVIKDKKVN

B1: His6-AfXPB (Archaeoglobus fulgidus XPB) (enzyme, UniProt O29889 1-452, looked up)
chain: MQMIAEIYYERGTIVVKGDAHVPHAKFDSRSGTYRALAFRYRDIIEYFESNGIEFVDNAADPIPTPYFDAEISLRDYQEKALERWLVDKRGCIVLPTGSGKTHVAMAAINELSTPTLIVVPTLALAEQWKERLGIFGEEYVGEFSGRIKELKPLTVSTYDSAYVNAEKLGNRFMLLIFDEVHHLPAESYVQIAQMSIAPFRLGLTATFEREDGRHEILKEVVGGKVFELFPDSLAGKHLAKYTIKRIFVPLAEDERVEYEKREKVYKQFLRARGITLRRAEDFNKIVMASGYDERAYEALRAWEEARRIAFNSKNKIRKLREILERHRKDKIIIFTRHNELVYRISKVFLIPAITHRTSREEREEILEGFRTGRFRAIVSSQVLDEGIDVPDANVGVIMSGSGSAREYIQRLGRILRPSKGKKEAVLYELISRGTGEVNTARRRKNAAKGAA
notes: residues 1-445 and 17 residues of the N-terminal His6 tag are seen in the crystal; also called full length AfXPB; source: E. coli Rosetta (DE3) pLysS, purified (heat step, HisTrap, HiTrap SP, Sephacryl S-200); not shown: His6, N-terminal, kept
B2: StXPB mutant E357A/E360A (enzyme, Sulfolobus tokodaii)
chain: MVYLRYFKGLILSDAYAPGLKWSDELKAYSALAFKYRDVRKYFLEKEIEVEENVIDSLPFPLIKDKIELRDYQAEAVKAWLKEKRGIIVLPTGAGKTQVALKIVSIMKVATLIVVPTIDLITQWKERINKYLDFDPGIIGGGEDSLKGITVITYDSAYTRAEELGNKFPLLIFDEVHHLPSEGYSIMAQLFASPYRLGLTATPERDDGKHELYPILVGPIVYRKSVEELAGKYIAKYKIKKLYVSLTNEEKKRYDGLRKKLKDFLSSRGLKLQNLDDFHRLVKLAAKDKEAREALLAWHESLNIAVNSQSKIEKLREILQEYKNEKIIVFTRDTQMAYRISKTFLIPVVTYKTDKDAREAILQKFRDGEYRVIVASTVFDEGVDVPDATLAIVMGGYGTKRQFLQRLGRILRKKDKEALLIEIVTKGTADYRLSRRRRE
notes: Expression and purification of the mutants are not described
B3: His6-StBax1 (Sulfolobus tokodaii Bax1) (enzyme, UniProt Q970I1 1-481, looked up)
chain: T2 sequence with A86R, A87R
notes: Homodimer when alone in solution (size-exclusion chromatography); one copy in the heterodimer with StXPB; source: E. coli Rosetta (DE3) pLysS, from pET15b, purified (heat step, ammonium sulfate, HisTrap, gel filtration)
B4: His6-AfBax1 (Archaeoglobus fulgidus Bax1) (enzyme)
chain: T1 sequence with A133D, A135E
notes: residues 1-467 are seen in the crystal of the untagged form; Used in ITC as His6-AfBax1; also called wild type AfBax1; source: E. coli Rosetta, from pET-28b, purified in the same way as His6-AfXPB
B5: His6-AfXPB C-terminal half (residues 234-452) (domain or fragment, Archaeoglobus fulgidus, UniProt O29889 234-452, looked up)
chain: LAGKHLAKYTIKRIFVPLAEDERVEYEKREKVYKQFLRARGITLRRAEDFNKIVMASGYDERAYEALRAWEEARRIAFNSKNKIRKLREILERHRKDKIIIFTRHNELVYRISKVFLIPAITHRTSREEREEILEGFRTGRFRAIVSSQVLDEGIDVPDANVGVIMSGSGSAREYIQRLGRILRPSKGKKEAVLYELISRGTGEVNTARRRKNAAKGAA
notes: also called AfXPB-CTD; His6-AfXPB-CTD; source: purified

Experiments:
[1] = biological target: StBax1 mutant L89A/F90A/P94S/V95S (Sulfolobus tokodaii) (UniProt Q970I1); assay: ITC; His6-StXPB (30 uM) injected into His6-StBax1 (3 uM); 16 injections of 2.36 ul; 40 C; 10 mM Tris-Cl pH 7.5, 200 mM NaCl, 5% glycerol, 0.01% sodium azide; single binding site fit; similar procedures for mutants
[2] = biological target: T1, AfBax1 mutant D133A/E135A; assay: ITC; His6-AfXPB (139.5 uM) or His6-AfXPB-CTD (202 uM) injected into His6-AfBax1 (13.3 uM); 16 injections of 2.36 ul; 40 C; 10 mM Tris-Cl pH 7.5, 500 mM NaCl, 5% glycerol, 0.01% sodium azide; single binding site fit; similar procedures for mutants; conditions: both partners purified
[3] = biological target: B4; assay: as above; conditions: both partners purified
StBax1 mutant R86A/R87A = biological target: T2, StBax1 mutant R86A/R87A; assay: ITC; His6-StXPB (30 uM) injected into His6-StBax1 (3 uM); 16 injections of 2.36 ul; 40 C; 10 mM Tris-Cl pH 7.5, 200 mM NaCl, 5% glycerol, 0.01% sodium azide; single binding site fit; similar procedures for mutants; conditions: both partners purified
[4] = biological target: the molecule itself; assay: SEC; S200 size-exclusion chromatography of the proteins alone and mixed; calibrated with Conalbumin (75 kDa), Ovalbumin (44 kDa) and Lactalbumin (14 kDa)

| Molecule | Kd [3] | stoichiometry N [3] | stoichiometry N [4] | other results |
| --- | --- | --- | --- | --- |
| His6-StXPB (Sulfolobus tokodaii XPB, XPBII) (from UniProt Q970I2 1-439) (enzyme) |  |  |  | stoichiometry N [1]: 1 |
| B1 | 15.2 nM | 1 |  | Kd [2]: 157 nM; stoichiometry N [2]: 1 |
| B2 |  |  |  | Kd (StBax1 mutant R86A/R87A): 64.9 nM; stoichiometry N (StBax1 mutant R86A/R87A): 1 |
| B3 |  |  | 2 |  |
| B4 |  |  | 2 |  |
| B5 | 0.5 nM | 1 |  |  |
